The nature of assay [1]: Effect on body weight loss and food intake in wildtype Diet Induced Obesity (DIO) mice. In kind it is in vivo. The conditions noted are these: 30 nmol/kg s.c. once daily, 5 day. The text has this:
Effect on Body Weight Loss in Wildtype Diet Induced Obesity Mice
Male C57BL6/J pre-fed on 60% high fat diet were obtained from The Jackson Laboratories at >16 weeks of age. Upon arrival of the Diet Induced Obesity (DIO) mice, the mice where single housed to obtain accurate and individual food intake measurements of each animal and assigned an animal number. […] During the entire study animals had ad libitum access to food and water.
Before start of treatment a stratified randomization was performed based on the body weight measured in week −1 prior study start. At study start the age of mice was around 20 weeks. Bodyweight and food intake were measured daily before compound administration. Animals were dosed around one hour before start of the night phase by subcutaneous injection of 30 nmol/kg once daily for 5 till 28 days depending on the experiment. Control animals were dosed by subcutaneous injection daily with vehicle.

The nature of assay [2]: Effect on acute food intake (AFI) in normal NMRI mice. The format is in vivo. The conditions noted are these: male NMRI mice, 10 nmol/kg s.c. once, % vs. vehicle group. As for the experimental part: Effect on Acute Food Intake in Normal NMRI Mice
Male NMRI mice were obtained from Charles River (Charles River, Research Models & Services Germany GmbH) or from JanVier (JanVier Labs, France) at 5 weeks of age. […] Room temperature was controlled to 21° C.±1° C., with 60%±20% humidity.
Animals were transferred 5-7 days before the start of the study to a real-time food intake monitoring system, HM-2 system (MBRose, Denmark), to allow acclimatization to experimental conditions. As the animals were uniquely identified with microchips, each individual animal was identified by its microchip upon entry and exit from the food channel. Randomization of the mice for each study group (n=7-8) was based on body weight measured the day before the start of the study. A vehicle-treated (50 mM phosphate buffer pH7 with 5% Mannitol) group was included in each experiment. Six hours before the start of the night phase animals were fasted. One hour before the dark phase animals were dosed once subcutaneously (10 nmol/kg) with test peptide. […] The food intake of the treated groups was normalized (in %) to the average food intake of the group receiving vehicle (Table 1). Statistical significance was evaluated using One-way analysis of variance with Turkey's multiple comparison test. P<0.05 was considered statistically significant.

The target in the next assay is T1, human NPY2 receptor (human, UniProt P49146).
T1 sequence: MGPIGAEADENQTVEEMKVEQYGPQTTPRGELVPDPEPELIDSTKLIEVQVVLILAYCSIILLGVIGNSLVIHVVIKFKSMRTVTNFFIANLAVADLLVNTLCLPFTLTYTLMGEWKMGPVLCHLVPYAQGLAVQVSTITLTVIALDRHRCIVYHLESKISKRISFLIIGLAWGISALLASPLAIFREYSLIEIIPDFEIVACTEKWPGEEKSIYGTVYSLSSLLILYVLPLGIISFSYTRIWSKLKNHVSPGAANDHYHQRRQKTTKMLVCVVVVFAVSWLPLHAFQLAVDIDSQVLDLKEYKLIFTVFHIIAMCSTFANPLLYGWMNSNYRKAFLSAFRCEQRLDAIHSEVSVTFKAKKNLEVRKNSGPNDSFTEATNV
Nature of the assay: radioligand binding competition (125I-PYY(1-36)) on human NPY2R membranes, filtration. On the procedure: The filtration RLB assay was carried out in 96-well plates in a final volume of 100 μl per well. Freeze-dried test peptides were dissolved in 100% dimethyl sulfoxide (DMSO) to stock solutions of 1 mM and serial dilutions were performed in assay buffer (50 mM HEPES, 5 mM MgCl₂, 1 mM CaCl₂, pH 7.4) containing 0.2% ovalbumin. […] Subsequently, 10 μl of human ¹²⁵I-PYY(1-36) (Perkin Elmer) in assay buffer containing 0.2% ovalbumin was added to wells to give a final concentration of 0.02 nM. Next, 80 μL membranes (HTS066M, ChemiSCREEN™ Human Neuropeptide Y2 Receptor Membrane Preparation, CHEMICON) were added to each well to give a final protein concentration of 0.5 μg/well. The plates were sealed and incubated at room temperature for 2 hours in a plate shaker set at 400 rpm. The incubation was stopped by vacuum filtration onto 0.5% poly-ethylene amine (PEI) presoaked GF/C filters using a 96-well FilterMate™ harvester (Perkin Elmer) followed by four washes with 300 μl/well ice-cold wash buffer (50 mM HEPES, 500 mM NaCl, pH7.4). Filter plates were then dried for 60 min at room temperature and the bottom of the plates was sealed with backing tape UniFilter-96. Finally, 50 μl/well scintillation counter cocktail (Microscint20, Packard) was added, and the radioactivity was counted in the Packard TopCount NXT scintillation counter. IC₅₀ values (the half maximal inhibitory concentration of the agonist) were calculated by nonlinear regression analysis of sigmoidal dose-response curves.

The record followed here is patent publication US20240091318A1, “COMBINATION THERAPY COMPRISING LONG ACTING GLP-1/GLUCAGON AND NPY2 RECEPTOR AGONISTS” (Boehringer Ingelheim International GmbH, priority 2022, published 2024).

Numbered stars: 1 amine (or outer) side, 2 acyl side, 3 side chain; on linkers, the order of the positions; unused ones are H or OH. Side chains are listed from the residue outwards. * marks the point of attachment. C18 diacid = O=C(O)CCCCCCCCCCCCCCCCC(=O)*; γGlu = O=C(O)[C@H](CCC(=O)[*:2])N[*:1]; Isovaleryl = CC(C)CC(=O)*; AEEA = NCCOCCOCC(=O)O; Ahx = NCCCCCC(=O)O

Consider `CC[C@H](C)[C@H](NC(=O)[C@H](CCC(=O)O)NC(=O)[C@H](CCC(=O)O)NC(=O)[C@@H]1CCCN1C(=O)[C@H](CO)NC(=O)[C@H](C)NC(=O)[C@H](CC(=O)O)NC(=O)[C@H](C)NC(=O)[C@H](CCC(=O)O)NC(=O)[C@@H]1CCCN1C(=O)[C@H](CCCCNC(=O)COCCOCCNC(=O)COCCOCCNC(=O)CC[C@H](NC(=O)CCCCCCCCCCCCCCCCC(=O)O)C(=O)O)NC(=O)[C@H](CCC(=O)O)NC(=O)[C@@H]1CCCN1C(=O)[C@H](C)NC(=O)CC(C)C)C(=O)N[C@@H](CCC(N)=O)C(=O)N[C@@H](CCCNC(=N)N)C(=O)N[C@@H](Cc1ccc(O)cc1)C(=O)N[C@@H](Cc1ccc(O)cc1)C(=O)N[C@H](C(=O)N[C@@H](CO)C(=O)N[C@@H](CC(C)C)C(=O)N[C@@H](CCCNC(=N)N)C(=O)N[C@@H](Cc1c[nH]cn1)C(=O)N[C@@H](Cc1ccc(O)cc1)C(=O)N[C@@H](Cc1ccc(O)cc1)C(=O)N[C@@H](CC(N)=O)C(=O)N[C@@H](Cc1c[nH]c2ccccc12)C(=O)N[C@@H](CC(C)C)C(=O)N[C@H](C(=O)N[C@@H](CCCNC(=N)N)C(=O)N[C@@H](CCC(N)=O)C(=O)N[C@@H](CCCNC(=N)N)C(=O)N[C@@H](Cc1ccc(O)cc1)C(N)=O)[C@@H](C)O)C(C)C` [Compound J, N{alpha-4}-(3-methylbutanoyl)-N{epsilon-7}-[2-(2-{2-[2-(2-{2-[(4S)-4-carboxy-4-(17-carboxyheptadecanamido)butanamido]ethoxy}ethoxy)acetamido]ethoxy}ethoxy)acetamido]-[4A,7K,9E,10A,17I,18Q,22V,28Y,30W,31L]hPYY(4-36)], for which the “BW 30 nmol/kg 5 day (body weight loss vs. vehicle group)” value in assay [1] is given as 12.2%. For the same molecule, the “AFI 10 nmol/kg 24 h (food intake normalized to vehicle group)” value in assay [2] worked out at 29%.

B1: Compound H (peptide)
peptide: Isovaleryl-APEK([AEEA-AEEA-γGlu-C18 diacid])PEEDATPEELQKYYVSLRHYYNWLTRQRY-NH2
The molecule B1 registered a Ki with human NPY2 receptor of 1.96 nM.

B2: Compound F (peptide)
peptide: Isovaleryl-APEK([AEEA-AEEA-γGlu-C18 diacid])PEADATPEELQRYYVSLRHYYNWLTRQRY-NH2
SMILES: CC(C)CC(=O)N[C@@H](C)C(=O)N1CCC[C@H]1C(=O)N[C@@H](CCC(=O)O)C(=O)N[C@@H](CCCCNC(=O)COCCOCCNC(=O)COCCOCCNC(=O)CC[C@H](NC(=O)CCCCCCCCCCCCCCCCC(=O)O)C(=O)O)C(=O)N1CCC[C@H]1C(=O)N[C@@H](CCC(=O)O)C(=O)N[C@@H](C)C(=O)N[C@@H](CC(=O)O)C(=O)N[C@@H](C)C(=O)N[C@H](C(=O)N1CCC[C@H]1C(=O)N[C@@H](CCC(=O)O)C(=O)N[C@@H](CCC(=O)O)C(=O)N[C@@H](CC(C)C)C(=O)N[C@@H](CCC(N)=O)C(=O)N[C@@H](CCCNC(=N)N)C(=O)N[C@@H](Cc1ccc(O)cc1)C(=O)N[C@@H](Cc1ccc(O)cc1)C(=O)N[C@H](C(=O)N[C@@H](CO)C(=O)N[C@@H](CC(C)C)C(=O)N[C@@H](CCCNC(=N)N)C(=O)N[C@@H](Cc1c[nH]cn1)C(=O)N[C@@H](Cc1ccc(O)cc1)C(=O)N[C@@H](Cc1ccc(O)cc1)C(=O)N[C@@H](CC(N)=O)C(=O)N[C@@H](Cc1c[nH]c2ccccc12)C(=O)N[C@@H](CC(C)C)C(=O)N[C@H](C(=O)N[C@@H](CCCNC(=N)N)C(=O)N[C@@H](CCC(N)=O)C(=O)N[C@@H](CCCNC(=N)N)C(=O)N[C@@H](Cc1ccc(O)cc1)C(N)=O)[C@@H](C)O)C(C)C)[C@@H](C)O
B2 came in with a Ki in the assay with human NPY2 receptor of 0.31 nM.

B3: Compound A (peptide)
peptide: Isovaleryl-APAK([AEEA-AEEA-γGlu-C18 diacid])PEEDATPEELQRYYVSLRHYYNWLTRQRY-NH2
Consider B3, for which the Ki with human NPY2 receptor turned out to be 0.66 nM.

B4: Reference 3 (peptide)
peptide: Isovaleryl-RPEKPEEDASPEELQRYYVSLRHYYNWLTRQRY-NH2
modifications: not fully specified (residue 4); printed as iVal-RPEK(C18DA-gGlu-OEG-OEG)PEEDASPEELQRYYVSLRHYYNWLTRQRY-NH2
Regarding B4, the affinity with human NPY2 receptor, expressed as Ki, was 0.46 nM. This Ki and that of the molecule before are within 1.5-fold of each other.

B5: Compound C (peptide)
peptide: Isovaleryl-APAK([AEEA-AEEA-γGlu-C18 diacid])PEEEASPEELQRYYVSLRHYYNWLTRQRY-NH2
SMILES: CC(C)CC(=O)N[C@@H](C)C(=O)N1CCC[C@H]1C(=O)N[C@@H](C)C(=O)N[C@@H](CCCCNC(=O)COCCOCCNC(=O)COCCOCCNC(=O)CC[C@H](NC(=O)CCCCCCCCCCCCCCCCC(=O)O)C(=O)O)C(=O)N1CCC[C@H]1C(=O)N[C@@H](CCC(=O)O)C(=O)N[C@@H](CCC(=O)O)C(=O)N[C@@H](CCC(=O)O)C(=O)N[C@@H](C)C(=O)N[C@@H](CO)C(=O)N1CCC[C@H]1C(=O)N[C@@H](CCC(=O)O)C(=O)N[C@@H](CCC(=O)O)C(=O)N[C@@H](CC(C)C)C(=O)N[C@@H](CCC(N)=O)C(=O)N[C@@H](CCCNC(=N)N)C(=O)N[C@@H](Cc1ccc(O)cc1)C(=O)N[C@@H](Cc1ccc(O)cc1)C(=O)N[C@H](C(=O)N[C@@H](CO)C(=O)N[C@@H](CC(C)C)C(=O)N[C@@H](CCCNC(=N)N)C(=O)N[C@@H](Cc1c[nH]cn1)C(=O)N[C@@H](Cc1ccc(O)cc1)C(=O)N[C@@H](Cc1ccc(O)cc1)C(=O)N[C@@H](CC(N)=O)C(=O)N[C@@H](Cc1c[nH]c2ccccc12)C(=O)N[C@@H](CC(C)C)C(=O)N[C@H](C(=O)N[C@@H](CCCNC(=N)N)C(=O)N[C@@H](CCC(N)=O)C(=O)N[C@@H](CCCNC(=N)N)C(=O)N[C@@H](Cc1ccc(O)cc1)C(N)=O)[C@@H](C)O)C(C)C
In the assay with human NPY2 receptor, B5 displayed a Ki of 1.95 nM.

B6: Compound J (peptide)
peptide: Isovaleryl-APEK([AEEA-AEEA-γGlu-C18 diacid])PEADASPEEIQRYYVSLRHYYNWLTRQRY-NH2
Take B6: the Ki with human NPY2 receptor was 0.24 nM.

B7: Compound E (peptide)
peptide: Isovaleryl-APAK([AEEA-AEEA-γGlu-C18 diacid])PEEDASPEEIQRYYVSLRHYYNWLTRQRY-NH2
In the case of B7, the inhibitory constant (Ki) with human NPY2 receptor stood at 0.55 nM.

B8: Compound K (peptide)
peptide: Isovaleryl-APEK([Ahx-γGlu-C18 diacid])PEADATPEEIQRYYVSLRHYYNWLTRQRY-NH2
The molecule B8 yielded a Ki with human NPY2 receptor of 1.04 nM.

B9: Reference 2 (peptide)
peptide: APEKPGEDASPEELQRYYVSLRHYYHWLTRQRY
modifications: not fully specified; N-terminal iVal (3-methylbutanoyl); the Lys (4th residue) carries C18DA-gGlu-OEG-OEG; C-terminal amide (-NH2)
The molecule B9 gave a Ki with human NPY2 receptor of 0.4 nM.

B10: Reference 1 (peptide)
peptide: Isovaleryl-APEKPEEDASPEEIQQYYVSLRHYYNWLTRQRY-NH2
modifications: not fully specified (residue 4); printed as iVal-APEK(C18DA-gGlu-OEG-OEG)PEEDASPEEIQQYYVSLRHYYNWLTRQRY-NH2
Regarding B10, the Ki in the assay with human NPY2 receptor stood at 0.74 nM.

As usually defined, the Ki is the dissociation constant of the complex between target and ligand, obtained from inhibition or displacement.
